The labels stand for the following.
B1: Gli2-ZF (domain or fragment, human, UniProt P10070 418-604, looked up)
chain: KEDLDRDDCKQEAEVVIYETNCHWEDCTKEYDTQEQLVHHINNEHIHGEKKEFVCRWQACTREQKPFKAQYMLVVHMRRHTGEKPHKCTFEGCSKAYSRLENLKTHLRSHTGEKPYVCEHEGCNKAFSNASDRAKHQNRTHSNEKPYICKIPGCTKRYTDPSSLRKHVKTVHGPDAHVTKKQRNDVH
B2: Gli2-ZF-GFP (domain or fragment, human, UniProt P10070 418-604, looked up)
chain: B1 chain
B3: GST-Kif7-SCC (481-543aa) (domain or fragment, human, UniProt Q2M1P5 481-543, looked up)
chain: KEDEGAQQLLTLQNQVARLEEENRDFLAALEDAMEQYKLQSDRLREQQEEMVELRLRLELVRP
B4: Kif27M-Kif7CC-GFP (other, human, UniProt Q86VH2 1-475, looked up)
chain: MEEIPVKVAVRIRPLLCKEALHNHQVCVRVIPNSQQVIIGRDRVFTFDFVFGKNSTQDEVYNTCIKPLVLSLIEGYNATVFAYGQTGSGKTYTIGGGHIASVVEGQKGIIPRAIQEIFQSISEHPSIDFNVKVSYIEVYKEDLRDLLELETSMKDLHIREDEKGNTVIVGAKECHVESAGEVMSLLEMGNAARHTGTTQMNEHSSRSHAIFTISICQVHKNMEAAEDGSWYSPRHIVSKFHFVDLAGSERVTKTGNTGERFKESIQINSGLLALGNVISALGDPRRKSSHIPYRDAKITRLLKDSLGGSAKTVMITCVSPSSSNFDESLNSLKYANRARNIRNKPTVNFSPESDRIDEMEFEIKLLREALQSQQAGVSQTTQINREGSPDTNRIHSLEEQVAQLQGECLGYQCCVEEAFTFLVDLKDTVRLNEKQQHKLQEWFNMIQEVRKAVLTSFRGIGGTASLEEGPQHVTVPDSGIESASVEDQAAQGAGGRKEDEGAQQLLTLQNQVARLEEENRDFLAALEDAMEQYKLQSDRLREQQEEMVELRLRLELVRPGWGGPRLLNGLPPGSFVPRPHTAPLGGAHAHVLGMVPPACLPGDEVGSEQRGEQVTN
B5: GST-Kif7-CC-GFP (domain or fragment, human, UniProt Q2M1P5 460-600, looked up)
chain: PDSGIESASVEDQAAQGAGGRKEDEGAQQLLTLQNQVARLEEENRDFLAALEDAMEQYKLQSDRLREQQEEMVELRLRLELVRPGWGGPRLLNGLPPGSFVPRPHTAPLGGAHAHVLGMVPPACLPGDEVGSEQRGEQVTN
B6: GST-Kif7-CC (460-600aa) (domain or fragment, human, UniProt Q2M1P5 460-600, looked up)
chain: B5 chain
B7: GST-Kif7-CC D505A (domain or fragment, human, UniProt Q2M1P5 460-600, looked up)
chain: B5 chain with D46A
B8: Kif7M-Kif27CC-GFP (other, human, UniProt Q2M1P5 1-462, looked up)
chain: MGLEAQRLPGAEEAPVRVALRVRPLLPKELLHGHQSCLQVEPGLGRVTLGRDRHFGFHVVLAEDAGQEAVYQACVQPLLEAFFEGFNATVFAYGQTGSGKTYTMGEASVASLLEDEQGIVPRAMAEAFKLIDENDLLDCLVHVSYLEVYKEEFRDLLEVGTASRDIQLREDERGNVVLCGVKEVDVEGLDEVLSLLEMGNAARHTGATHLNHLSSRSHTVFTVTLEQRGRAPSRLPRPAPGQLLVSKFHFVDLAGSERVLKTGSTGERLKESIQINSSLLALGNVISALGDPQRRGSHIPYRDSKITRILKDSLGGNAKTVMIACVSPSSSDFDETLNTLNYASRAQNIRNRATVNWRPEAERPPEETASGARGPPRHRSETRIIHRGRRAPGPATASAAAAMRLGAECARYRACTDAAYSLLRELQAEPGLPGAAARKVRDWLCAVEGERSALSSASGPDSVLQLKRELKKCQCVLAADEVVFNQKELEVKELKNQVQMMVQENKGHAVSLKEAQKVNRLQNEKIIEQQLLVDQLSEELTKLNLSVTSSAKENCGDG
B9: Kif7-DM(E502A)-GFP (domain or fragment, human, UniProt Q2M1P5 1-543, looked up)
chain: MGLEAQRLPGAEEAPVRVALRVRPLLPKELLHGHQSCLQVEPGLGRVTLGRDRHFGFHVVLAEDAGQEAVYQACVQPLLEAFFEGFNATVFAYGQTGSGKTYTMGEASVASLLEDEQGIVPRAMAEAFKLIDENDLLDCLVHVSYLEVYKEEFRDLLEVGTASRDIQLREDERGNVVLCGVKEVDVEGLDEVLSLLEMGNAARHTGATHLNHLSSRSHTVFTVTLEQRGRAPSRLPRPAPGQLLVSKFHFVDLAGSERVLKTGSTGERLKESIQINSSLLALGNVISALGDPQRRGSHIPYRDSKITRILKDSLGGNAKTVMIACVSPSSSDFDETLNTLNYASRAQNIRNRATVNWRPEAERPPEETASGARGPPRHRSETRIIHRGRRAPGPATASAAAAMRLGAECARYRACTDAAYSLLRELQAEPGLPGAAARKVRDWLCAVEGERSALSSASGPDSGIESASVEDQAAQGAGGRKEDEGAQQLLTLQNQVARLEEANRDFLAALEDAMEQYKLQSDRLREQQEEMVELRLRLELVRP

For one series, the target named is T1, Kif7-DM (1-543aa) (human, UniProt Q2M1P5 1-543).
T1 sequence (looked up): B9 chain with A502E
Put plainly: BLI. On the technique in general: Biolayer interferometry detects binding as a change in optical thickness at a sensor tip.

The target in series [1] is T2, Kif7-DM-GFP (1-543aa) (human, UniProt Q2M1P5 1-543).
T2 sequence (looked up): B9 chain with A502E
In words: BLI.

The target of the series “Kif7-DM(E502A)-GFP” is B9. Put plainly: BLI.
The target in the series “GST-Kif7-CC-GFP” is B5. In words: SEC. (Size exclusion chromatography separates by hydrodynamic size, large species first.)
Series [2] addresses T2, Kif7-DM-GFP (1-543aa). Put plainly: SEC.
Series [3] concerns the target B1. Put plainly: BLI.
The series “SEC” deals with the molecule itself. In words: SEC.
Series [4] deals with B1. Put plainly: BLI. The source holds these as a separate data set.
The target in the series “Gli2-ZF-GFP” is B2. Put plainly: BLI.

Where a chain is given by its changes, count along the chain named. Names may count otherwise. Where two headings read alike, the source gives them in different places.

With B1, the figures for the Kd in the series with Kif7-DM (1-543aa), with Kif7-DM-GFP (1-543aa) [1] and with Kif7-DM(E502A)-GFP were 99 ± 25 nM, 138 ± 41 nM and 414 ± 103 nM, respectively.

For the molecule B2, the stoichiometry N – broadly, the number of molecules, sites or subunits per partner or assembly – is 0.5 Gli2-ZF-GFP per Kif7-CC-GFP chain (one per dimer) in the series with GST-Kif7-CC-GFP and 1 Gli2-ZF per Kif7-DM chain (two per dimer) with Kif7-DM-GFP (1-543aa) [2].

B3: the Kd (as a rule, the concentration at which binding is half-saturated) with Gli2-ZF [3] was found to be 69 ± 20 nM. For B4, the “stoichiometry N” value in “SEC” was found to be 2. The molecule also came in with a dissociation constant Kd in the series with Gli2-ZF [4] of 217 ± 70 nM. Take B5: the dissociation constant (Kd) with Gli2-ZF [3] worked out at 65 ± 22 nM; in the series with Gli2-ZF-GFP it was 57 ± 9 nM. In the series with Gli2-ZF [3], B6 gave a Kd of 48 ± 5 nM. B7: the binding result in the series with Gli2-ZF [3] was “binds”. Turning to B8, the dissociation constant Kd with Gli2-ZF [4] turned out to be 397 ± 88 nM. Consider B9, for which the “stoichiometry N” value in the series “SEC” amounted to 2.

The values above are taken from PMC10016618 (Nature cell biology, 2021).
